According to article PMC6797804 (2019):
Substitutions are numbered along the chain they refer to. Ends that are not written are not given here. * marks the point of attachment. Crotonyl(E) = C/C=C/C(=O)*

B1: unmodified histone H3 peptide (residues 1–19 of H3) (peptide)
peptide: ARTKQTARKSTGGKAPRKQ
B2: histone H3K14cr peptide (residues 1–19 of H3) (peptide)
peptide: ARTKQTARKSTGGK(Crotonyl(E))APRKQ

What was measured:
[1] = target: T1, MORF DPF domain (residues 211–322), wild type (human, UniProt Q8WYB5 211-322)
T1 chain: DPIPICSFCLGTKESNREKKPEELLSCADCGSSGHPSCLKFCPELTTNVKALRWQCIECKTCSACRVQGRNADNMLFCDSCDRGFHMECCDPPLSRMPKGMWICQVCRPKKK

[2] = target: T2, MORF DPF domain (residues 211–322) F218A (human, UniProt Q8WYB5 211-322, F218A)
T2 sequence: T1 chain with F8A

[3] = target: MORF DPF domain (residues 211–322) F287A (human, UniProt Q8WYB5 211-322, F287A); test: NMR
[4] = target: T3, MORF DPF domain (residues 211–322) F287A/R306E/K309E (human, UniProt Q8WYB5 211-322, F287A | R306E | K309E); test: NMR
T3 sequence: T1 chain with F77A, R96E, K99E

MORF DPF domain (residues 211–322) F287A, sequence (Q8WYB5 211-322 F287A): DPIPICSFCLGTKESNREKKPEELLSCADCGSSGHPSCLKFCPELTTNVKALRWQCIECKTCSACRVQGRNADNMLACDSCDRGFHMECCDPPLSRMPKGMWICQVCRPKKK

Binder	Kd [1] [µM]	Kd [2] [µM]	Kd [3] [µM]	Kd [4] [µM]
B1	3.6	3.3	8000	–
B2	–	–	–	285
